# Data published in FireProtDB (doi:10.1002/pro.5560031114).
# Several values for one entry are separate records, joined by “and”; a condition that tells them apart may be missing. Equal entries are not always repeated.
# Conditions: Escherichia coli, pH 7, Thermal, DSC, Na phosphate 100 mM, NaCl 200 mM, reversible: yes, whole UniProt chain shown
protein,measurement,setting,value
"Regulatory protein rop wild type, P03051 (protein) MTKQEKTALNMARFIRSQTLTLLEKLNELDADEQADICESLHDHADELYRSCLARFGDDGENL",unfolding free energy,74.6 °C,3.1 kcal/mol and 5.6 kcal/mol
same,unfolding enthalpy (calorimetric),,114 kcal/mol and 83.1 kcal/mol and 94.3 kcal/mol
same,unfolding enthalpy (van 't Hoff),,132 kcal/mol and 79.8 kcal/mol and 104 kcal/mol
